The text below walks through data of patent publication US20100204147A1, “Methods For Delivering Thymosin Beta 4, Analogues, Isoforms and Other Derivatives” (REGENERX BIOPHARMACEUTICALS, INC., priority 2003, published 2010).

In assay [1] the target is T1, recombinant γ-module (residues γ148-411) (Homo sapiens, UniProt P02679).
T1 construct: comprising residues 148-411 of the human fibrinogen γ chain; made in house; host or cells: E. coli, pET20b expression vector
T1 sequence (P02679 174-437 isoform P02679-2): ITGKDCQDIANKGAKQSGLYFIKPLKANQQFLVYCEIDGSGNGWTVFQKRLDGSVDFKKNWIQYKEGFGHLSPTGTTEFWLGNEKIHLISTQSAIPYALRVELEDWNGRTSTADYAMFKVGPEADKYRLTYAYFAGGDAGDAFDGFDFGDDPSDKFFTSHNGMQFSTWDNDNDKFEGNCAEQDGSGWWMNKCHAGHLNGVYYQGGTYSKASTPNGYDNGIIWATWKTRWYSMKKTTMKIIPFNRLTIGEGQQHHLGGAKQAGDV
Briefly: ELISA and kinetic analysis of incorporation into immobilized γ-module. The class given is biochemical. As for the experimental part:
(§1) The interaction between thymosin β4 and fibrin(ogen) and its fragments in the presence or absence of FXIIIa was studies by ELISA using plastic microliter plates. Wells of microliter plates were coated overnight at […] with fibrinogen and fibrin at 10 μg/mL or with the recombinant fragments of 20 μg/ml, all in 0.1 M NaHCO3 buffer, pH 8.3. Fibrin was made by addition to the wells of a mixture containing 10 μg/mL fibrinogen 1 NIH u/ml thrombin and 400 u/ml aprotinin, followed by overnight incubation at +4° C. The wells were then blocked by incubation with Super Blocker (Pierce) at 37° C. for 1 h. Following washing with TBS containing 0.05% Tween-20 (TBS-Tween), the indicated concentrations of thymosin β4, FXIII, FXIIIa(Thr) and FXIIIa(Ca) were added to the wells and incubated for 2-2.5 h at 37° C. Bound (incorporated) thymosin β4 was detected by the reaction with rabbit anti-thymosin β4 serum and peroxidase-conjugated anti-rabbit IgG. A TMB Microwell Peroxidase Substrase was added to the wells, and the incorporated thymosin β4 was measured spectrophotometrically at 450 nm.
(§2) To analyze kinetics of the incorporation of thymosin β4 into different fibrin(ogen) fragments, they were immobilized onto the wells of microliter plates (as described above, except that the concentration of all fragments was 20 μg/mL) and incubated with several concentrations of thymosin β4 in the presence of 10 μg/L thrombin-activated factor XIIIa. The incubation mixtures were inhibited every 15 min during 1 hour of incubation by the addition of iodacetamide to final concentration 10 mM. Incorporated thymosin β4 at each time point was detected with rabbit anti-thymosin β4 serum as described above. The initial rates of the reaction of incorporation (V) at different concentrations of thymosin β4 were determined from the slopes of the reaction time course plots and expressed as tangent α=A450/t (min), where A450 represents absorbance at 450 nm in optical units (o.u) which is proportional to the amount of incorporated thymosin β4. […]
Background: ELISA stands for enzyme-linked immunosorbent assay.

The target in assay [2] is T2, αC-domain (residues Aα221-610) (Homo sapiens, UniProt P02671).
T2 construct: human fibrinogen αC-domain (residues Aα221-610); made in house; host or cells: E. coli, pET20b expression vector
T2 sequence (P02671 240-629): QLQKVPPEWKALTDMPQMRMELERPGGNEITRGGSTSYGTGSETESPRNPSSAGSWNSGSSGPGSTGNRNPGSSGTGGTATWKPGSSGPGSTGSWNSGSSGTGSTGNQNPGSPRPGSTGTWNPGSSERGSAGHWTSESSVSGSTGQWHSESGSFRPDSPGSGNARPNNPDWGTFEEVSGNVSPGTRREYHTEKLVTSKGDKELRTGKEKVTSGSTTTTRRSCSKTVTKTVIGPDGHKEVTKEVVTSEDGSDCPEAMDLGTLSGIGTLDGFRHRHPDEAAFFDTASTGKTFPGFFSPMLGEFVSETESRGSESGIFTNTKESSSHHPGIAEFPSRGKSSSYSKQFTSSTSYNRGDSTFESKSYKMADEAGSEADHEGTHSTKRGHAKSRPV
Briefly: ELISA and kinetic analysis of incorporation into immobilized αC-domain. The class given is biochemical. As for the experimental part:
as §1, §2

Where [3] appears, read: non-activated factor XIII or without it.

In the case of thymosin β4, in assay [1] (setting [3]), the “non-covalent interaction with γ-module (ELISA)” value was “no significant non-covalent interaction”. Moreover, the “incorporation into immobilized γ-module (ELISA)” value in assay [1] (presence of factor XIIIa) is “incorporated effectively”. The Km was 183 ± 29 µM in assay [1] (thrombin-activated factor XIIIa, Lineweaver-Burk plot, read-out: apparent Michaelis constant (Km) for incorporation into the γ-module) and 17.6 ± 2.5 µM in assay [2] (thrombin-activated factor XIIIa, Lineweaver-Burk plot, read-out: apparent Michaelis constant (Km) for incorporation into the αC-domain). In addition, the “non-covalent interaction with αC-domain (ELISA)” value in assay [2] (setting [3]) is “no significant non-covalent interaction”. In addition, in assay [2] (presence of factor XIIIa), the “incorporation into immobilized αC-domain (ELISA)” value was “incorporated effectively”.
